Test results taken from the RNAGym collection of RNA variant scans (doi:10.7554/elife.80360).

B1: HDV Ribozyme (parent)
chain: GGCCGGCAUGGUCCCAGCCUCCUCGCUGGCGCCGGCUGGGCAACAUUCCGAGGGGACCGUCCCCUCGGUAAUGGCGAAUGGGACCCA

Variants of: B1
Test: self-cleavage, relative activity (ratio to wild type); higher = more cleavage; co-transcriptional

**Q.** Which self-cleavage does the source give for A77U G80A here?
**A.** The self-cleavage was 0.0923.

**Q.** For A77U G80U, which self-cleavage is on record?
**A.** Its self-cleavage is 0.161.

**Q.** For A77U G80C, which self-cleavage is on record?
**A.** The self-cleavage was 0.136.

**Q.** For C75G C86A, which self-cleavage is on record?
**A.** The self-cleavage was 0.147.

**Q.** For G80C A83G, which self-cleavage is on record?
**A.** Its self-cleavage is 0.102.

**Q.** Which self-cleavage does the source give for G76A A87G here?
**A.** The self-cleavage was 1.01.

**Q.** With C75U A78U as the variant, how does the self-cleavage read?
**A.** Its self-cleavage is 0.264.

**Q.** With C75U A78G as the variant, how does the self-cleavage read?
**A.** Its self-cleavage is 0.214.

**Q.** Which self-cleavage does the source give for U79C here?
**A.** Its self-cleavage is 0.438.

**Q.** Which self-cleavage does the source give for U79A here?
**A.** The self-cleavage was 0.808.

**Q.** For U79G, which self-cleavage is on record?
**A.** Its self-cleavage is 0.742.

**Q.** For G76A A78C, which self-cleavage is on record?
**A.** Its self-cleavage is 0.242.

**Q.** For G76A A78U, which self-cleavage is on record?
**A.** The self-cleavage was 0.673.

**Q.** With G76A A78G as the variant, how does the self-cleavage read?
**A.** Its self-cleavage is 0.816.

**Q.** With A77C G81A as the variant, how does the self-cleavage read?
**A.** The self-cleavage was 0.173.

**Q.** Which self-cleavage does the source give for A77C G81U here?
**A.** The self-cleavage was 0.116.

**Q.** Which self-cleavage does the source give for A78U G81U here?
**A.** The self-cleavage was 0.269.

**Q.** Which self-cleavage does the source give for A77G G80U here?
**A.** Its self-cleavage is 0.244.

**Q.** Which self-cleavage does the source give for A77G A87U here?
**A.** Its self-cleavage is 0.851.

**Q.** With C75G G76U as the variant, how does the self-cleavage read?
**A.** Its self-cleavage is 0.237.

**Q.** Which self-cleavage does the source give for C75G G76A here?
**A.** The self-cleavage was 0.196.

**Q.** With A78G C86U as the variant, how does the self-cleavage read?
**A.** The self-cleavage was 0.643.

**Q.** Which self-cleavage does the source give for A78G C86A here?
**A.** The self-cleavage was 0.727.

**Q.** For G73U C85G, which self-cleavage is on record?
**A.** Its self-cleavage is 0.437.

**Q.** With G73U C85A as the variant, how does the self-cleavage read?
**A.** The self-cleavage was 0.397.

**Q.** With G74C A78G as the variant, how does the self-cleavage read?
**A.** Its self-cleavage is 0.113.

**Q.** Which self-cleavage does the source give for G74C G80C here?
**A.** Its self-cleavage is 0.183.

**Q.** For C75U U79G, which self-cleavage is on record?
**A.** The self-cleavage was 0.0594.

**Q.** For C75U U79A, which self-cleavage is on record?
**A.** The self-cleavage was 0.151.

**Q.** Which self-cleavage does the source give for G80A A87U here?
**A.** Its self-cleavage is 0.441.

**Q.** With G80A A87C as the variant, how does the self-cleavage read?
**A.** Its self-cleavage is 0.33.

**Q.** For C75A U79C, which self-cleavage is on record?
**A.** The self-cleavage was 0.0707.

**Q.** For A77G G81C, which self-cleavage is on record?
**A.** The self-cleavage was 0.256.

**Q.** For A77G G81U, which self-cleavage is on record?
**A.** Its self-cleavage is 0.348.

**Q.** Which self-cleavage does the source give for A77G G81A here?
**A.** Its self-cleavage is 0.287.

**Q.** With G76U U79G as the variant, how does the self-cleavage read?
**A.** Its self-cleavage is 0.91.

**Q.** For G76U U79C, which self-cleavage is on record?
**A.** The self-cleavage was 0.782.

**Q.** Which self-cleavage does the source give for G74A G81C here?
**A.** The self-cleavage was 0.218.

**Q.** With G76C C84A as the variant, how does the self-cleavage read?
**A.** Its self-cleavage is 1.19.

**Q.** For G76C C84U, which self-cleavage is on record?
**A.** Its self-cleavage is 1.04.

**Q.** For U79G G82U, which self-cleavage is on record?
**A.** The self-cleavage was 0.271.

**Q.** With U79G G82A as the variant, how does the self-cleavage read?
**A.** The self-cleavage was 0.0875.

**Q.** With C75U C86A as the variant, how does the self-cleavage read?
**A.** Its self-cleavage is 0.111.

**Q.** With G73U G80A as the variant, how does the self-cleavage read?
**A.** Its self-cleavage is 0.0839.

**Q.** Which self-cleavage does the source give for A77G A83U here?
**A.** The self-cleavage was 0.635.

**Q.** Which self-cleavage does the source give for A77G A83C here?
**A.** Its self-cleavage is 0.208.

**Q.** With G73C U79G as the variant, how does the self-cleavage read?
**A.** Its self-cleavage is 0.107.

**Q.** For G73C U79C, which self-cleavage is on record?
**A.** Its self-cleavage is 0.161.

**Q.** With G76U G82A as the variant, how does the self-cleavage read?
**A.** Its self-cleavage is 0.343.

**Q.** Which self-cleavage does the source give for G76U G82C here?
**A.** Its self-cleavage is 0.277.

**Q.** With A77U C84A as the variant, how does the self-cleavage read?
**A.** The self-cleavage was 0.291.

**Q.** For A77U C84G, which self-cleavage is on record?
**A.** Its self-cleavage is 0.403.

**Q.** With A78G G80A as the variant, how does the self-cleavage read?
**A.** The self-cleavage was 0.242.

**Q.** With A78U G82A as the variant, how does the self-cleavage read?
**A.** The self-cleavage was 0.109.

**Q.** Which self-cleavage does the source give for G76C A87C here?
**A.** The self-cleavage was 1.08.

**Q.** Which self-cleavage does the source give for U79C G82A here?
**A.** The self-cleavage was 0.133.

**Q.** For A78G G81U, which self-cleavage is on record?
**A.** Its self-cleavage is 0.185.

**Q.** For A77C A83U, which self-cleavage is on record?
**A.** Its self-cleavage is 0.312.

**Q.** Which self-cleavage does the source give for A77C A83G here?
**A.** Its self-cleavage is 0.156.

**Q.** Which self-cleavage does the source give for G73U C84A here?
**A.** Its self-cleavage is 0.158.

**Q.** With G73U C84G as the variant, how does the self-cleavage read?
**A.** Its self-cleavage is 0.329.

**Q.** For C75G G82C, which self-cleavage is on record?
**A.** The self-cleavage was 0.271.

**Q.** For G74U A83C, which self-cleavage is on record?
**A.** Its self-cleavage is 0.271.

**Q.** Which self-cleavage does the source give for G74U A83G here?
**A.** Its self-cleavage is 0.256.

**Q.** For G74A G76C, which self-cleavage is on record?
**A.** The self-cleavage was 0.464.

**Q.** For U79C C86G, which self-cleavage is on record?
**A.** The self-cleavage was 0.284.

**Q.** With U79C C86U as the variant, how does the self-cleavage read?
**A.** The self-cleavage was 0.696.

**Q.** For C75A, which self-cleavage is on record?
**A.** The self-cleavage was 0.171.

**Q.** For C75G, which self-cleavage is on record?
**A.** The self-cleavage was 0.159.

**Q.** With C75U as the variant, how does the self-cleavage read?
**A.** Its self-cleavage is 0.19.

**Q.** For U79A C86A, which self-cleavage is on record?
**A.** The self-cleavage was 0.688.

**Q.** For A78C A83C, which self-cleavage is on record?
**A.** Its self-cleavage is 0.151.

**Q.** With U79A G82A as the variant, how does the self-cleavage read?
**A.** Its self-cleavage is 0.227.

**Q.** With G74U C85A as the variant, how does the self-cleavage read?
**A.** Its self-cleavage is 0.415.

**Q.** With U79C G80C as the variant, how does the self-cleavage read?
**A.** Its self-cleavage is 0.208.

**Q.** With C75U A87U as the variant, how does the self-cleavage read?
**A.** Its self-cleavage is 0.185.

**Q.** Which self-cleavage does the source give for C75U A87C here?
**A.** Its self-cleavage is 0.161.

**Q.** With A77C A78U as the variant, how does the self-cleavage read?
**A.** The self-cleavage was 0.208.

**Q.** With U79A C85U as the variant, how does the self-cleavage read?
**A.** Its self-cleavage is 0.855.

**Q.** Which self-cleavage does the source give for G76A G81A here?
**A.** Its self-cleavage is 0.332.

**Q.** For C75G A87G, which self-cleavage is on record?
**A.** Its self-cleavage is 0.108.

**Q.** With C75G A87U as the variant, how does the self-cleavage read?
**A.** The self-cleavage was 0.143.

**Q.** Which self-cleavage does the source give for G74A A77C here?
**A.** Its self-cleavage is 0.231.
